Assay: label from the status in PepcDB records

Sequence	protein production
MAVPSFFTLMNLLCGFMALTQVADAAFVLACWLIVLAGFFDLLDGVMARLTGADSPFGVQLDSLSDIVSFGVAPSFLLYGYVLDTFNPLGMIVAALPALCGAVRLARYNMTADESDKEGFEGLPIPGQAIAVVALILAAENSAWDGRFALDSLRVVLPVVIVLSGLMVSSIRFDAIPMPSLEAVRTHPSKIAAYGLAGLLIVGLQERGLLIVLTAYLLHGVGRALYKLMRALVAPVPDERLGS	failed
MAVRFFHTSDWHLGQFFYNHSRHYEHEQFLAWLLKQIKAKQPHALLIAGDIFDVINPSSQAQKQLYQFLADAHALAPHMQTLMIAGNHDSGYRIEQVEPLLEKYNARTVGVIRWNEDKTLNLERLILPVYDENKNVVAWCIALPFLRSAEITGFNEHTNNSQSAIAYLHEQLISEAKRRKTDDQAIILMSHAHMQGGETSDSERPIIIGNEEALSTALFDDAIDYVALGHLHKPQKVQHPHIRYSGSPIPLSFSEINYKHQVVDVNIDPTQSTDKFQFEAIEIPRSIKLHKIRGELNEVIQQLKSLAQGEIESIDLREYIDIEYHTLTPPLPNLRQQFEDALPPKRYRLVRISRQYLSQDNNAAQASKINLEPPTPEKLFEQIWDKKGYHADDDVKKDFMSLVAQAQQQLEDQHKY	failed
MAVRIVDDLQQLSLLLMFLSTFIFYRYLKKVKRERKLTGFEWTMYFVTQFATLIWAITYFIKHLAES	failed
MAVRVCCHAPPGVSNHLFTFCAGNLTTGFSGGSVTSQKGGAAGLPTCSRRCPRGCLPGSDPLPRHPRRYAPPVTPPVTPPTTPAPRSRARMLELVFPKDTNYHGTAFGGWVLALMDKAASVAAVRHAGGNVVTARMDGVDFHVPIRVGDAVALDARVIRVGRSSMTIRVDVYRENMASGEQQLATGGLFTFVALGEDGKPRPVPPLPEGSTDSEQPDYEARP	failed
MAVSKMEKMTIIAAAEKEAAILQAIQGLQIVEVKRIFHSPEEEQALKSQYSFLQAEQSTEQLRKYETMLQQLQELLLFLTRSSGKGLKIKRKVYTLEELEQTFDEETLQSYLTELKNIQESLKQIQTDRQGLEAEEELLGRWQYLDVLPHKQQLKSSYVVHGSINLANKASFLSALSQWPTVYFEEIYQSMHHSYFTLVYLKEHQQSVTELLNQYSFEPLQYRYDVPPKEAYQQVKERYEILQKEEKALKQQLASYHDFYETFCLAEEVLLAVIQREQARQHLLNASSFFILQTWIPVEEKAEILTAIEEKVPKDEIALTFENPTKAEIETDIPVKLANNKLVQPFEMLTEMYSLPKYEEVDPTPAMMPFYLVFFGMMVADIGYGLLMLLLSIIALKAFVLPRGMKRFADFFLILSFPTIIWGFIYGSFFGAALPPIMFGIKSPFPILSTTEDVNTILILSVIFGFIQLVVGLMINGIQLSKQKRYLDSINESYAWLGILFGLALLVVGKLVVKNEGLFTAGAILASLSAIAIIVIPMIQSKAKLKGLAKGLYGLYGVTGYVGDLVSYTRLMALGIAGGSIASAFNMLVEFMPPVARFSVGILLLIVLHALNIFLSLLGAYVHGARLQYVEFFGKFYTGGGRAFNPLKTKEKYVNVEKK	failed
MAVSSGTFSTFLCIKTTSFRNPSTPLSSLRFASHPAAKLRLVRAVTSATESSEPTATNKRVPRGIMKPRPVSPEMQDIVELPEIARTQALKRIWAYIKEHDLQDPQNKREILCDEKLKKIFEGRDRVGFLEIAKLIGPHFL	failed
MAVVASAPGKVLMTGGYLVLEKPNAGLVLSTNARFYAIVKPINEEVKPESWAWKWTDVKLTSPQLSRESMYKLSLNHLTLQSVSASDSRNPFVEHAIQYAIAAAHLATEKDKESLHKLLLQGLDITILGSNDFYSYRNQIESAGLPLTPESLGTLAPFASITFNAAESNGANSKPEVAKTGLGSSAAMTTAVVAALLHYLGVVDLSDPCKEGKFGCSDLDVIHMIAQTSHCLAQGKVGSGFDVSCAVYGSQRYVRFSPEVLSFAQVAVTGLPLNEVIGTILKGKWDNKRTEFSLPPLMNLFLGEPGSGGSSTPSMVGAVKKWQMSDPEKARENWQNLSDANLELETKLNDLSKLAKDHWDVYLRVIKSCSVLTSEKWVLHATEPINEAIIKELLEAREAMLRIRILMRQMGEAASVPIEPESQTQLLDSTMSAEGVLLAGVPGAGGFDAIFAITLGDSGTKLTQAWSSHNVLALLVREDPHGVCLESGDPRTTCITSGVSSIHLE	failed
MAWNKQVALVFLPSDSGVDGARSLYGDTEPPGLRRWLDSGVRNLIKRTQFAIPPLALMILASIEVPGVEQTLCDLRFEEFPFDRQWDLVGISVQTGMASKAFELADRLRSRGVKVVLGGPHVTMFPDSCRAHADCLVHGEADDLWRDVLADLVTDSLKAEYRPDAPPDLQLHRPVSRASLKKNRYFTTNLVQTGRGCPYQCDFCNVHVLNGRVLRQRKIDHIVDEVRRFSEEDKRIFFFVDDSINGDPLFARELFKHLIPLNITWFGQATTALGQQPELLDTFARSGCRALLVGIESIEPSSRIAHKKTQNRTDELAGNIRAIRKSGISLYGSFIYGLDGDTLQTPQAILDFIADTRLDVPGINTLRPIPGTKVFDRLREEGRLLFDPEDITSFRYTFGQEMLYRPKNIPLPEFIESYSELTRKVFNIGNAIRRGLEAPGINAAVLFFNLFYTHLYRLSRNDLRKQLETLGSA	failed
MAYDDIVSSMVLELRRGTLVMLVLSQLREPAYGYALVKSLADHGIPIEANTLYPLMRRLESQGLLASEWDNGGSKPRKYYRTTDEGLRVLREVEAQWHVLCDGVGKLLETNGEDREHAER	not failed
MAYDGLFTKKMVESLQFLTTGRVHKINQPDNDTILMVVRQNRQNHQLLLSIHPNFSRLQLTTKKYDNPFNPPMFARVFRKHLEGGIIESIKQIGNDRRIEIDIKSKDEIGDTIYRTVILEIMGKHSNLILVDENRKIIEGFKHLTPNTNHYRTVMPGFNYEAPPTQHKINPYDITGAEVLKYIDFNAGNIAKQLLNQFEGFSPLITNEIVSRRQFMTSSTLPEAFDEVMAETKLPPTPIFHKNHETGKEDFYFIKLNQFNDDTVTYDSLNDLLDRFYDARGERERVKQ	not failed
MAYDIERYLDIRGAGDPTYGPTGELAFTLGTTGTAQVWALGAPGAWPTQLTFHDERVQWASFSPTREELAYGMDTGGDEFTQLHRVSGDGSEDVQLTAFPDAKHDWGGWSHDGDRIAYTANRRDASRFDVYVQGRDEAGANADCVRVGDTFDLPSVVGWSPSDDRLLVVDTHSNFDQDVAVLDVDTGEITRATAGLDADTRFSWVAWAPDGGGVYVTTDHDADTRYLGLLDPETGAISRVADGGDWPIEAVVTAHDAGRLAYVRNRDGYSELTIADAAGTTLTEQPTPELPDGVIRGLSWGPDGDTLAVVVSAATENPNVFVVDVATGAATQWTNAATAGIPKSTFREPELVRYETFDGREIPALFTRPDGDGPHPVIVDFHGGPEGQRRPSFLSLRQYFVDNGYAVFEPNVRGSSGYGATYMNLDNVRNRMDAVADGKAGVEWLTARTDIDADRVVAYGGSYGGFMVLASLTEYPELWAAGVDIVGIANFVTFLENTGDWRREHRESEYGSLDADREFLESISPTNNADRIRAPLLVLHGANDPRVPVGEAERIVEQASAHVPVEKHVFDDEGHGFSKRANKQAAYRAVVDFLDDHALEHHHHHH	failed
MAYFYLAEAGDWSFRTVWHDRFFTVLKHHPARTEKVEQADYIFLDADFALETNWPYYGSQRKAILKGDRFPTDEEILAFLFDHPVSGYGKPLVLINMNPLAQWPAIAQVLPDVVVVSHCHTLGNYRVGIDVSFPPMPLLDQHCYPSRDRSTLLSFRGANSHPVREQLQRLHQPPEIAAELIQQSYWGTLNYVDEAEGLSAEQQVYTDLIARSRFSVAPRGHDIFSYRLLEVMAGGAIPVILADDWVLPFSELLDWSEFSLSVAEDRCWELPQLLQAISTDQWQVMQQHLQQVYQHYFYSLARQVQTLWQILDQRSLHPSASEVEIEAVLLSQAERYRLKGDLEAAATYLATLPRSPARILEQARLALTQQQPKAALALLDSMVMPEAEQGEHYNLLGVAQTQLGEWDTAIAIYRQGLQAQPHHPKLRTNLCVALRQQEQWEEALALSQALLEEVPAAIDRLLLQADTLNLAGRYDQALSLYQQVVAREPERANAQLAIAEILLRQGKAEGWDIYEARFAAEPSLAALAAHYPQPRWQGVELGQRSLLVWGEQGYGDQIQFSRYLWVLRDRYPQARIQFQTDAVLVPLFAEPLASLGIKVIPAQITEELFDFQVPLLSLPRLVWPSLKDIPYREGWLPCPLPPPREDQNHKFRVGIVWLAGQRAGIQKSATADRRSCSLEAMLELVRESMQRSDLEVVSLQLGYEGRLPEGIQDWSNRLVDFSATARVLMELDLLVTVDTAIVHLAGAMGTPAKVLLAYPPDWRWQQNLELTWYSSIELCYFAHLLSSF	failed
MAYNSNSNNNNNNIVVVFDFDKTIIDVDSDNWVIDELGFTDLFNQLLPTMPWNTLMDRMMKELHDQGKTIEEIKQVLRTIPIHPRVVPAIKSAHDLGCELRIVSDANMFFIETIVEHLGISELFSEINSNPGYVDERGTLKISPYHDFTKSPHSCSCGTCPPNMCKGLIIERIQQSLAKEGKKKMIYLGDGAGDYCPSLKLNTEDYVMPRKNFPVWDLISQNPMLIKAAIREWTDGQSMEMILIGTIEEIRLEEEKEKMLTSAENNCKMQTISIGINNVHHEPILPRALRVSQSS	failed
MAYVSMGEAHRRITEYLNRFCDAVSYQDSSTLCRLLSFSSNSPPLLSLADALNVFQDSSSLIRQSDRFSEYGEILAHVFRSLQSYRVGNLVEAYLAFDKFANAFVQEFRNWESAWALEALYVVCYEIRVLAEKADKDLTSNGKSPEKLKAAGSLLMKVFGVLAGKGPKRVGALYVTCQLFKTYFKLGTVNLCRSVIRSIETARIFDFEEFPRRDKVTYMYYTGRLEVFNENFPAADTKLSYALQNCNPKRERNIRMILKYLVPVKLSLGIIPKDELLRNYNLHEYTKIVQALRKGDLRLLRHALQEHEDRFLRSGVYLVLEKLELQVYQRLMKKIYINQKLSDPARAHQLKLEGIAKALRWLDMDMDLDEVECIMTILIYKNLVKGYLAHKSKVVVLSKQDPFPKLNGKPVSS	failed
MCEGRRAAFQAVDNCSSGNALTSKCGEKEAGVAGDAATSPKGLTWDPAQCFYSPACNAENITSKNRSPALLSRPHAQPGESERLITVLSNRDRKASPGAAGDSGLGGASPSGRGRDGTRGWGENWLPPPAAPQATSACSGAGSGAVGAARPCSSRELAVVGGGGDASGGCVGCRAGDRTAAPSSRCPEPTWSNCSEATAPAHTGEEAAVAAVAAAPAMLCYVTRPDAVLMEVEVEAKANGEDCLNQVCRRLGIIEVDYFGLQFTGSKGESLWLNLRNRISQQMDGLAPYRLKLRVKFFVEPHLILQEQTRHIFFLHIKESLLAGHLQCSPEQAVELSALLAQTKFGDYNQNTAQYSYEDLCEKELSSSTLNSIVGKHKELEGISQASAEYQVLQIVSAMENYGIEWHAVRDSEGQKLLIGVGPEGISICKEDFSPINRIAYPVVQMATQSGKNVYLTVTKESGNSIVLLFKMISTRAASGLYRAITETHAFYRCDTVTSAVMMQYSRDLKGHLASLFLNENINLGKKYVFDIKRTSKEVYDHARRALYNAGVVDLVSRNDQSPPSSPLKSSDSSMSCSSCEGLSCQQTRVLQEKLRKLKEAMLCMVCCEEEINSTFCPCGHTVCCESCAAQLQSCPVCRSRVEHVQHVYLPTHTSLLNLTVI	failed
MCGSERFQFRSGAKPLIRGRPLDSDMESLHPRVRLLWVLSTVIQASVLGVIAYLVDRFAVSLPQTVVVGGWVVLVLLGVAHAIAAHRIWRFDLQDDALFLLRGVVTRTDTSVPYVRVQHVDTTRGPVERAIGLASVVVYTAGTRGADITIPGLRPERATELREQLRDLANESEATDAV	failed
MCHQLSKKTKKALDQELKRKTTLKNNLFSRYLLFRYSLALFFFVNLYWTFPLIYKPSVYVILPVSLLILIVLACAEQFKLYSLQEVYLRNTERVFKTQIVVQILLLIINIFPQQLSVAIPFFSNNMAAHVFLAVFQFLGLFICWYNLKRIKQIKNNEDKFYNRFYNHIEKYI	failed
MCIGMDIRDFFAQSAGRWFSQRTSHHLAFKQTESGKSQLTIELLSVDDPAVIALCQQYDMDPAWAVCGARVSWDGTMEWDNEKHEGSTVLVPIMDQGSRMEGKLLREMGYAEKAPVAGRFSMGSDGALTLITEYETIYSEERLWFASPNLRLRTSILKRFGGFSMASFCSEIRLGVTQPANSLEHHHHHH	not failed

— a protein production outcome set (Wang et al. 2014)
